{"source": "paper PMC9929924", "about": "“Phosphorylation of the receptor protein Pex5p modulates import of proteins into peroxisomes” (Biological Chemistry, 2022)", "molecules": {"B1": {"name": "Pex5p wildtype, recombinant His6-tagged (HisPex5p) (natural protein, S. cerevisiae, UniProt P35056 1-612, looked up)", "chain": "MDVGSCSVGNNPLAQLHKHTQQNKSLQFNQKNNGRLNESPLQGTNKPGISEAFISNVNAISQENMANMQRFINGEPLIDDKRRMEIGPSSGRLPPFSNVHSLQTSANPTQIKGVNDISHWSQEFQGSNSIQNRNADTGNSEKAWQRGSTTASSRFQYPNTMMNNYAYASMNSLSGSRLQSPAFMNQQQSGRSKEGVNEQEQQPWTDQFEKLEKEVSENLDINDEIEKEENVSEVEQNKPETVEKEEGVYGDQYQSDFQEVWDSIHKDAEEVLPSELVNDDLNLGEDYLKYLGGRVNGNIEYAFQSNNEYFNNPNAYKIGCLLMENGAKLSEAALAFEAAVKEKPDHVDAWLRLGLVQTQNEKELNGISALEECLKLDPKNLEAMKTLAISYINEGYDMSAFTMLDKWAETKYPEIWSRIKQQDDKFQKEKGFTHIDMNAHITKQFLQLANNLSTIDPEIQLCLGLLFYTKDDFDKTIDCFESALRVNPNDELMWNRLGASLANSNRSEEAIQAYHRALQLKPSFVRARYNLAVSSMNIGCFKEAAGYLLSVLSMHEVNTNNKKGDVGSLLNTYNDTVIETLKRVFIAMNRDDLLQEVKPGMDLKRFKGEFSF", "notes": "Pex5p, PTS1 receptor of Saccharomyces cerevisiae, UniProtKB P35056, full length; No cleavage of the His tag is described; the native MS mass of the monomer is printed as 71.459 kDa; also called Pex5p^WT; source: E. coli BL21 RIL (DE3), purified (Ni-NTA, MonoQ anion exchange, SEC)"}, "B2": {"name": "Pex5p-S507/523D, recombinant His6-tagged phospho-mimicking mutant (natural protein, S. cerevisiae, UniProt P35056 1-612, looked up)", "chain": "B1 chain with S507D, S523D", "notes": "Pex5p, PTS1 receptor of Saccharomyces cerevisiae, UniProtKB P35056, full length, with S507D and S523D; No cleavage of the His tag is described; the native MS mass of the monomer is printed as 71.515 kDa; also called Pex5p^2D; Pex5p-S507D/523D; source: E. coli BL21 RIL (DE3), purified (Ni-NTA, MonoQ anion exchange, SEC)"}, "B3": {"name": "Pcs60p, peroxisomal oxalyl-CoA synthetase, recombinant (natural protein, S. cerevisiae, UniProt P38137 1-543, looked up)", "chain": "MTSAATVTASFNDTFSVSDNVAVIVPETDTQVTYRDLSHMVGHFQTMFTNPNSPLYGAVFRQDTVAISMRNGLEFIVAFLGATMDAKIGAPLNPNYKEKEFNFYLNDLKSKAICVPKGTTKLQSSEILKSASTFGCFIVELAFDATRFRVEYDIYSPEDNYKRVIYRSLNNAKFVNTNPVKFPGFARSSDVALILHTSGTTSTPKTVPLLHLNIVRSTLNIANTYKLTPLDRSYVVMPLFHVHGLIGVLLSTFRTQGSVVVPDGFHPKLFWDQFVKYNCNWFSCVPTISMIMLNMPKPNPFPHIRFIRSCSSALAPATFHKLEKEFNAPVLEAYAMTEASHQMTSNNLPPGKRKPGTVGQPQGVTVVILDDNDNVLPPGKVGEVSIRGENVTLGYANNPKANKENFTKRENYFRTGDQGYFDPEGFLVLTGRIKELINRGGEKISPIELDGIMLSHPKIDEAVAFGVPDDMYGQVVQAAIVLKKGEKMTYEELVNFLKKHLASFKIPTKVYFVDKLPKTATGKIQRRVIAETFAKSSRNKSKL", "notes": "Pcs60p, peroxisomal oxalyl-CoA synthetase of S. cerevisiae, a PTS1-protein; GST tag removed with thrombin; native MS mass of the monomer printed as 60.632 kDa; also called wildtype Pcs60p; GSTPcs60p (before cleavage); source: E. coli BL21 RIL (DE3), purified (GSTrap, thrombin cleavage, SEC); not shown: GST, N-terminal, cleaved"}}, "key": {"Pex5p^2D": {"molecular_target": "T1, Pex5p^2D (Saccharomyces cerevisiae, UniProt P35056, S507D/S523D)", "T1 construct": "10 μM full-length Pex5p^WT and Pex5p^2D mutant as a sample in the cell; made in house; host or cells: E. coli BL21 RIL (DE3)", "T1 sequence (P35056 whole entry S507D/S523D)": "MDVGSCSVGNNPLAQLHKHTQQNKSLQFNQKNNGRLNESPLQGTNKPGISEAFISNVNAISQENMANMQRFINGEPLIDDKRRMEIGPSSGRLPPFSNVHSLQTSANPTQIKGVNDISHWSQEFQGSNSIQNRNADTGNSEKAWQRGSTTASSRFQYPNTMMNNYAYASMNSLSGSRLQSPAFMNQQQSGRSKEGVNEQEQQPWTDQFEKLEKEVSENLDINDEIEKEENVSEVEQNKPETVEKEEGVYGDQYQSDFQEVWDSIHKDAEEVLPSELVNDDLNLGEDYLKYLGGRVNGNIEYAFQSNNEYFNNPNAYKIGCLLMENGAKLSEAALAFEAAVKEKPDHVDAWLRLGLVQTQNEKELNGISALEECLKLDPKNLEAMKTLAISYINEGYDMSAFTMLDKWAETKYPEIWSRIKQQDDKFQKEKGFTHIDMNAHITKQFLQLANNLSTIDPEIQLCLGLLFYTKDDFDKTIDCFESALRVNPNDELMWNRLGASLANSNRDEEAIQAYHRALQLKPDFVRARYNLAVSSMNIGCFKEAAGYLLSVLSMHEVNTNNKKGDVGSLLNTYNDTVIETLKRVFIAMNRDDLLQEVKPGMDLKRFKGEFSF", "experiment": "biochemical", "format": "binding", "from_the_text": "The elution of proteins was monitored at 280 nm."}, "[1]": {"molecular_target": "the molecule itself", "experiment": "native MS; single purified proteins in 200 mM ammonium acetate pH 6.8; collision energy 100 V"}, "[2]": {"molecular_target": "B1", "experiment": "fluorescence polarisation; fluorescence anisotropy; 10 nM FITC-labelled Idp3p peptide, serial dilutions of Pex5p variant 160 nM to 38 µM; 50 mM HEPES pH 7.5, 150 mM NaCl; one-site binding-saturation fit", "details": "both partners purified"}, "[3]": {"molecular_target": "B1", "experiment": "ITC; MicroCal VP-ITC, 25 °C; 10 µM Pex5p variant in the cell, 100 µM Pcs60p as titration ligand, 30 injections of 10 µl; 50 mM HEPES pH 7.5, 150 mM NaCl", "details": "both partners purified"}, "[4]": {"molecular_target": "B2", "experiment": "ITC; MicroCal VP-ITC, 25 °C; 10 µM Pex5p variant in the cell, 100 µM Pcs60p as titration ligand, 30 injections of 10 µl; 50 mM HEPES pH 7.5, 150 mM NaCl", "details": "both partners purified"}, "[5]": {"molecular_target": "T2, Pex5p-S507/523D, recombinant His6-tagged phospho-mimicking mutant (S. cerevisiae, UniProt P35056 1-612, S507D | S523D)", "T2 sequence": "B1 chain with S507D, S523D", "experiment": "ITC; representative single titration"}, "[6]": {"molecular_target": "T3, Pex5p wildtype, recombinant His6-tagged (HisPex5p) (S. cerevisiae, UniProt P35056 1-612)", "T3 chain": "B1 chain", "experiment": "ITC; representative single titration"}, "[7]": {"molecular_target": "B1", "experiment": "native MS; Pex5p variant (7.5 µM) mixed with Pcs60p (5 µM), 5 min on ice; 200 mM ammonium acetate pH 6.8; collision energy 100 V", "details": "both partners purified"}, "[8]": {"molecular_target": "B2", "experiment": "native MS; Pex5p variant (7.5 µM) mixed with Pcs60p (5 µM), 5 min on ice; 200 mM ammonium acetate pH 6.8; collision energy 100 V", "details": "both partners purified"}}, "note": "Numbering of substitutions follows the chain as printed. Names may count otherwise. “And” between values parts separate entries of the source, which are not always exact repeats. Equal entries are not always repeated. Ends that are not written are not given here. Peptide text beside a SMILES is read from it. * marks the point of attachment. FITC = O=C1OC2(c3ccc(O)cc3Oc3cc(O)ccc32)c2ccc(NC(=S)*)cc21"}
{"molecule": "CC(C)C[C@H](NC(=O)[C@H](CCCCN)NC(=O)[C@H](C)NC(=O)[C@H](CCCCN)NC(=O)[C@H](CCCNC(=N)N)NC(=O)[C@H](CCCCN)NC(=O)[C@H](CC(N)=O)NC(=O)[C@H](CCC(=O)O)NC(=O)[C@H](CC(N)=O)NC(=O)[C@H](Cc1ccc(O)cc1)NC(=S)Nc1ccc2c(c1)C(=O)OC21c2ccc(O)cc2Oc2cc(O)ccc21)C(=O)O", "note": "[Cat2p peptide] ({FITC}-YNENKRKAKL-OH)", "values": [{"measurement": "Kd", "setting": "Pex5p^2D", "value": 897, "unit": "nM"}]}
{"molecule": "CC(C)C[C@H](NC(=O)[C@H](CCCNC(=N)N)NC(=O)[C@H](CO)NC(=O)[C@H](CO)NC(=O)[C@H](CCCNC(=N)N)NC(=O)[C@H](CCCCN)NC(=O)[C@@H](NC(=O)[C@H](CCCNC(=N)N)NC(=O)[C@H](C)NC(=O)[C@H](Cc1ccc(O)cc1)NC(=S)Nc1ccc2c(c1)C(=O)OC21c2ccc(O)cc2Oc2cc(O)ccc21)C(C)C)C(=O)O", "note": "[Lys1p peptide] ({FITC}-YARVKRSSRL-OH)", "values": [{"measurement": "Kd", "setting": "Pex5p^2D", "value": "3690 ± 1580", "unit": "nM"}]}
{"molecule": "B1", "values": [{"measurement": "stoichiometry N", "setting": "[1]", "value": 2}]}
{"molecule": "B2", "values": [{"measurement": "stoichiometry N", "setting": "[1]", "value": 2}]}
{"molecule": "{FITC}-YNEDKKGMCKL", "note": "[Idp3p nonapeptide, FITC-YNEDKKGMCKL]", "values": [{"measurement": "Kd", "setting": "[2]", "value": 5540, "unit": "nM"}]}
{"molecule": "B3", "values": [{"measurement": "Kd", "setting": "[3]", "value": 17.4, "unit": "nM"}, {"measurement": "Kd", "setting": "[4]", "value": 338, "unit": "nM"}, {"measurement": "Kd", "setting": "[5]", "value": 271, "unit": "nM"}, {"measurement": "Kd", "setting": "[6]", "value": 13, "unit": "nM"}, {"measurement": "stoichiometry N", "setting": "[7]", "value": "1 Pcs60p per Pex5p (2:2 receptor-cargo complex) and 1 Pcs60p per Pex5p and 2 Pcs60p per Pex5p (1:2 receptor-cargo complex)"}, {"measurement": "stoichiometry N", "setting": "[8]", "value": "1 Pcs60p per Pex5p and 2 Pcs60p per Pex5p (1:2 receptor-cargo complex) and 1 Pcs60p per Pex5p (2:2 receptor-cargo complex)"}]}
